From the DeepSol protein solubility set

Assay: soluble on expression in E. coli; label from the status in PepcDB or PDB records
With “MSLKKSLATIRAEERNYFQSPKWFCDFVEKPIQGLEREEGVHRRDPSSIIKVDNLYYVYYTKSYGPHVGFNTGDLNAKVFPWDYSEIWVATSEDGYVWEEKGVAVTRGEAGRYDDRSVFTVEVMKYDGKYYLVYQTVQHPYVNRSFENIAIAWSDNPLGPFQKSDEPILRPTGDGIWDTEEDNRFLVKKKGSFDSHKVHDPLLFHYRDKFYLYYKGEPMGEEIFMGGRETKWGVAIADSIEGPYIRSEYNPITNSGHETCLWQYKEGMAAFLRTDGVEKNTLQFAEDGINFQIMSVIKWGPEACGPYRPDEIITDDPLEGMKWGMSHSLGKPGCPYGCLVRFDINTKQRDIYAARKKYEEGHHHHHH” the “soluble on expression in E. coli” value was “soluble”. In the case of “MDVIREYLMFNELSALSSSPESVRSRFSSIYGTNPDGIALNNETYFNAVKPPITAQYGYYCYKNVGTVQYVNRPTDINPNVILAQDTLTNNTNEPFTTTITITGSFTNTSTVTSSTTTGFKFTSKLSIKKVFEIGGEVSFSTTIGTSETTTETITVSKSVTVTVPAQSRRTIQLTAKIAKESADFSAPITVDGYFGANFPKRVGPGGHYFWFNPARDVLNTTSGTLRGTVTNVSSFDFQTIVQPARSLLDEQ”, the “soluble on expression in E. coli” value is reported as “soluble”. For “MGSDKIHHHHHHMILGIDVGGTSVKFGLVTPEGEIQNATRFMTADWVNGIGFVESMKLEIGNFLKQYPIVKGVGIGWPGLVSLDRTKVILLPNIPSVVNVPIVEILRSEFPHIHFKIENDAKCAALGEYYFGENKRMQTFILLALGTGVGSGVMMNGKLFIGGRGNGTEVGHMLTTRGKSLENQVGINHLIAYTHEQLALDVAKKSSLHTIAELSPKVIADHAAQGDALALAVWADIGTIIGESLVNIVRVMDLNNILLGGGISGAFDYFVPNLKKAMLEHLPTYYTDDMYIGKATLENDAGLLGAAGLIMEAI”, the “soluble on expression in E. coli” value was “not soluble”. For “MGHHHHHHSHMLFSRIFMAGAPKFIKQLLLDLRNEIYCTILIVGDFNAPLTALDRSSRQKVHKETMGLHCILEQMDLTYIYRTFHPTTAEYTLFSSAHGTFFKIDHIIGHENKSQ”, the “soluble on expression in E. coli” value was “not soluble”. In the case of “MAHHHHHHMTTTASPQTGSSPTVPTPVAPPSIDEALSYWIGLSRLIHRVCVTSDSTPSADEGEPSTFTRYALHCVLLCCGIKQHRVRQTADHMLAQLLSAAYTTAAALTGPVVLLDSESPASTPFRSPVRQLPVPLPVLVADWLKQSSADDQKASQHNRYCLRVPAVTWTRSIIKWLGSELRGQMISLRPLSRWNMVCAQQSGRMPVVIFVGGASGAGKSTLASLVASQLRVPNVLSTDTVRQVLRARLCGHEAQFPALFVSTYEAHKVTADDSHASADDGSAVPHAQSADENAIVQGYEAQCELVLRVLDGMLARLLARRESIVVEGVHLLPRYLAAKRAELLVSRVACVPVLVRIPKADSHLERLCIRARGMSMRAQNNKYIASFKAIRAIQAHLVDSVEAASLPVLVLSNTNMDKSFTALHHTLLETMEYAAVHGWPADAAAAADVPLTGLVFRAVKDRLVAVVRQRRWRRSATNDNISTSSGTGASAPGDEEKGGVATGPFSALVLAPHARPPVHSPAGSSNGAAPRARSAELLGVVQRCLLEQGLRYHSRTSNAQVDAATVYGSSGVLGARDASSRFHAHVVIRRSFTIAAKSHISMTASSHLPLDNHNEEFDELEIPSLIGS”, the “soluble on expression in E. coli” value is reported as “not soluble”. In the case of “SLRITAIREIAVPLQGNISNSLVSFAEHTVSLVALVSDVVRDGRPLIGYAFDSIGRYAQPGLMRERFIPRLLQAAPHELLDDGGQAFDPARASAIMLRNEKPGGHGDRAAAVGALELAFWDLNAKLRDEPAYCTIARHVGRPAQAGATQVYAAGGYYYDSGDPLQRLRDEFRGYLDQGFVKFKMKIGGASLADDLARIEAALGVAGEGANLAVDANGRFDLDTALAYARALEPYGLRWYEEIGDPLDYHLNSLVAQAYAGTIATGENLFSLPDVRNLLHFAGVRPGRDILQMDPGLSYGLTEYLRMMAAVEAAGFGRSCLHPHGGHLINLHIAAGLGLGGCEAYPGVFQPFGGYPAACALGAGQVRPTDAPGFGLEQKQELAPYISVLAHG”, the “soluble on expression in E. coli” value is reported as “soluble”. For “GMFVSDQAEAKGFIEDSSLDLLLRNYYFNRDGKSGSGDRVDWTQGFLTTYESGFTQGTVGFGVDAFGYLGLKLDGTSDKTGTGNLPVMNDGKPRDDYSRAGGAVKVRISKTMLKWGEMQPTAPVFAAGGSRLFPQTATGFQLQSSEFEGLDLEAGHFTEGKEPTTVKSRGELYATYAGETAKSADFIGGRYAITDNLSASLYGAELEDIYRQYYLNSNYTIPLASDQSLGFDFNIYRTNDEGKAKAGDISNTTWSLAAAYTLDAHTFTLAYQKVHGDQPFDYIGFGRNGSGAGGDSIFLANSVQYSDFNGPGEKSWQARYDLNLASYGVPGLTFMVRYINGKDIDGTKMSDNNVGYKNYGYGEDGKHHETNLEAKYVVQSGPAKDLSFRIRQAWHRANADQGEGDQNEFRLIVDYPLSILHHHHHHHH”, the “soluble on expression in E. coli” value was “soluble”. In the case of “MGSDKIHHHHHHMRFPEFSGEWKKYFIRDIAEVTKGAGISKEQRSLFGTPCILYGELYTTYKSEVINDVQSKTDIDAKNLVRSKENDVIIPSSGETAIDISTARCVPYDDVLLGGDLNIIRLYQNDGRFLSYQLNGVRKLDIARVAQGSSVIHLYGESIKSLSVSLPALKEQQKIVSLLSLIDERIATQNKIIEEYKKLKNALAELFFAKSIEYTSIGEMCDVVMGQSPSSVAYNYTKNGLPLIQGNLDIFEGVTSPRMWTSDITKQCDIGDIILTVRAPVGDVAKSNMIACVGRGVCAIKVKESGCSEYVYQYLLYFKAKWGSIEQGSTFSAISRNDILNINIPVITKRLIVASHLLALFDSEISIEALNLNVYTKQKQYLLTKMFI”, the “soluble on expression in E. coli” value is reported as “not soluble”. For “MAHHHHHHMMRSRRPLSASRASARASAASRPQPHTTVSSDDASRSQTTAPIYRPLRYVGRGSFGVVLLAEEVHTGDRVAIKRVHYDARLHNREVAILNSVLVDNPRHQQPSSTAVDSNDASRRPGGAARASCTSFLSASSSSHTVEDVHLWPGTHHPNIVELLDFYVTYDTASSEQALGADMVGAGGAGAGFEFLPSYHPAAHRYPLSGGSGAASASAPPVPAPLAAFAYLEMVMSYLPMDLCYVKRYYFRFHDMPTIATSSSSSPIASPEQAPTELSSGELPEGTADRLPASPKHAGTGCNGNNSSRHSSTSSSGGDVCNHLPLRWVKVVLFQLARALAFMHVRHVCHRDLKPANVLVDPDTGRVQVCDFGSAKQITRPAEEKNVSYICSRYYRAPELLFGALHYGCAVDMWSFGCIAAELLRESGKPLFRGCTSIDQMAELFKVLGAPSKREMYAMNPQCAEALLRTRAMHRHQSLDNDPHSGSGGGVRQDRSCGLELEVDYQAEEEDDVELRGGAQQGGYDVDSHGEFLRDALDDGISSQASASPGMATASPPSSSTKDPRDYKTTFSAPPSTAATAMLDDVAPTPFEEYYDVLKVRAIPWRRLFPVDTPTEAVALVASLLCYAPDKRLTAAELVEHPFFDDLFSAADAQLATVDRDAATAVASGATMSPSEDDGVASAALRLPNGRLMPLSMFQVTEVERGLYTDAFLTRMARQAELVAAVMKQDEYP”, the “soluble on expression in E. coli” value was “not soluble”. For “MTTHLNPPQEAPYMKNATFYLLDNDTTVNGLSAVEQLVCEIAAERWRAGKRVLIACEDEKQAIRLDEALWARPAESFVPHNLAGEGPRGGAPVEIAWPQKRNSSPRDILISLRTSFADFATAFTEVVDFVPYEETLKQLARERYKAYRVAGFNLNTATWK”, the “soluble on expression in E. coli” value was “not soluble”. With “MAEEKVKDEAMQIMGMFQILPRLVVFDLDYTLWPFYCECRSKREMPSMYPQAKGILSALKEKGIEMAIASRSPTSDIANTFLDKLNIKPMFVAKVSKMGVTSILVGDGVTLGAFRQGLTEFTQNHNSIEKNKQVWRDKYSGKPTSSETDKD” the “soluble on expression in E. coli” value was “soluble”. With “MSEKTMRVQDYPLATRCPEHILTPTGKPLTDITLEKVLSGEVGPQDVRISRQTLEYQAQIAEQMQRHAVARNFRRAAELIAIPDERILAIYNALRPFRSSQAELLAIADELEHTWHATVNAAFVRESAEVYQQRHKLRKGS” the “soluble on expression in E. coli” value was “soluble”.
